From patent US20090186027A1 (RAMOT AT TEL AVIV UNIVERSITY, published 2009) come the findings set out here.

For this test, the target named is T1, β-amyloid peptide 1-40 (UniProt P05067 672-711).
T1 construct: domain: beta amyloid peptide 1-40; Residues 1-40 are counted on Aβ, not on the APP entry; Coated after overnight incubation at 37 C (ELISA) or pre-aggregated for a week (ThT assay); also called Aβp 1-40; AβP 1-40
Briefly: ELISA, constant 10 µM Aβ 1-40 coated, 3.125-25 µM antibody; reference 37L. The method, then: Wells were washed and blocked with 3% milk powder in PBS for 1 hr at 37° C. […] The rest of the ELISA assay was performed as described above.

B1: 37H (single domain antibody, heavy chain variable domain of scFv RCK37) (other)
VH: MAHVQFVQSGGDLVKPGGSLKLSCAASGFTFSSYGMSWVRQTPDKRLEWVATISSGGSYTYYPDSVKGRFTISRDNAKNTLYLQMSSLKSEDTAMYYCARHNYGSSYPYAMDYWGQGTPVTVSA
notes: also called 37H nanobody; nanobody 37H; not shown: C-terminal His tag from the pET28/pET21 vector
Turning to B1, the “fold stronger binding than 37L” value came out at 5 times.
